Experimental data taken from patent US20120283184A1 (published 2012).

Experiments:
[1] = biological target: T1, human vascular endothelial growth factor receptor-2 Fc chimera (KDR-Fc) (human, UniProt P35968 20-764); assay: radioactive equilibrium binding, 1 nM KDR-Fc, % of input
T1 construct: range 1-764; also called human VEGFR-2; not shown: human IgG1 Fc
Procedure, shortened: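 ³⁵S-Met-labelled fibronectin-based scaffold proteins, made by reticulocyte-lysate translation and Flag-purified, were held at 0.2 or 0.5 nM with 0–200 nM receptor-Fc for 1 h at 30 °C in buffer B. Complexes were captured on Protein A beads, washed and KOH-eluted. Bound fraction is eluted radioactivity as % of input, minus receptor-free background, fitted to one-site binding.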
T1 sequence (P35968 20-764 limits assumed, change not shown, form in doubt): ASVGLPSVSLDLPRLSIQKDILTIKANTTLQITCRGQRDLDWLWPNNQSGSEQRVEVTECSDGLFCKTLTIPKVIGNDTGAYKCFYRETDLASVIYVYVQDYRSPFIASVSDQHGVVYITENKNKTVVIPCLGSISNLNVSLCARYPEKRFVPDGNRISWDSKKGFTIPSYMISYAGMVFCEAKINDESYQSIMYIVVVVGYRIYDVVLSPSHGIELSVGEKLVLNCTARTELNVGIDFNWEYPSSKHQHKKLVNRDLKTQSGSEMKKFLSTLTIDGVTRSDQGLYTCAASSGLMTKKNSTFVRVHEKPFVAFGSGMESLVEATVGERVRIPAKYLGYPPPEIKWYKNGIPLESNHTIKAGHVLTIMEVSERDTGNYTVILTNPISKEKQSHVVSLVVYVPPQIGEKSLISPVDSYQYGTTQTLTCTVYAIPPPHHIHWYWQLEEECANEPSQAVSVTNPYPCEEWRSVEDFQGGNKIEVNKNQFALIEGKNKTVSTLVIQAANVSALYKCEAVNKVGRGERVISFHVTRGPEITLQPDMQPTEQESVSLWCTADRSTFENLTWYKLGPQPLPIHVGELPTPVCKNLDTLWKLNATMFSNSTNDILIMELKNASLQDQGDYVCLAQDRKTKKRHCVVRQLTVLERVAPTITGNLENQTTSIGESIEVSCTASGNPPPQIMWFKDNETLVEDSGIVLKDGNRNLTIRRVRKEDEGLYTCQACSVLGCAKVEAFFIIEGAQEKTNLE

[2] = biological target: T2, human vascular endothelial growth factor receptor-2 Fc chimera (KDR-Fc) (human, UniProt P35968 20-764); assay: radioactive equilibrium binding, 1 nM KDR-Fc
T2 construct: range 1-764; Purchased from R&D Systems; also called hKDR; human VEGF-R2-Fc; not shown: human IgG1 Fc
Method: To prepare ³⁵S-labeled binding proteins for analysis, mRNA was prepared as described above for RNA-protein fusion production but the linker ligation step was omitted. The mRNA was expressed using rabbit reticulocyte lysate translation kit (Ambion) in the presence of ³⁵S-labeled Met at 30° C. for 1 hour. Expressed protein was purified on M2-agarose Flag beads (Sigma) as described above. This procedure produced the encoded protein without the nucleic acid tail. In a direct binding assay, VEGF-R2-Fc fusions in concentrations ranging from 0 to 200 nM were added to a constant concentration of the purified protein (0.2 or 0.5 nM) and incubated at 30° C. for 1 hour in buffer B. The receptor-binder complexes were captured using Protein A magnetic beads for another 10 minutes at room temperature using a Kingfisher™ The beads were washed with six reaction volumes of buffer B. The protein was eluted from the beads with 100 μL of 0.1 M KOH. 50 μL of the reaction mixture and elution were dried onto a LumaPlate-96 (Packard) and the amount of ³⁵S on the plate was measured using a TopCount NXT instrument (Packard). The amount of fibronectin-based scaffold protein bound to the target was estimated as a percent of radioactivity eluted from Protein A magnetic beads compare to radioactivity in the reaction mixture. Nonspecific binding of fibronectin-based scaffold proteins to the beads was determined by measuring binding in the absence of KDR-Fc and represented less than 1-2% of the input. Specific binding was obtained through subtraction of nonspecific binding from total binding. Data was analyzed using the GraphPad Prizm software (GraphPad Software, Inc, San Diego, Calif.), fitted using a one site, non-linear binding equation.
T2 sequence (P35968 20-764 limits assumed, change not shown, form in doubt): as above

Binder | Binding to 1 nM KDR, % [1] | Binding to 1 nM KDR, % [2]
3′G3 PR4 (designed binder) EVVAATPTSLLISWRHPHFPTRYYRITYGETGGNSPVQEFTVPLQPPTATISGLKPGVDYTITVYAVTFDQSDHELLTPISINYRT | 31% | –
3′G7 PR4 (designed binder) EVVAATPTSLLISWRHPHFPTRYYRITYGETGGNSPVQEFTVPLQPPTATISGLKPGVDYTITVYAVTEGQNDQLLFIPISINYRT | 19% | –
3′G10 PR4 (designed binder) EVVAATPTSLLISWRHPHFPTRYYRITYGETGGNSPVQEFTVPLQPPTATISGLKPGVDYTITVYAVTLTHNDHELLTPISINYRT | 30% | –
3′H1 PR4 (designed binder) EVVAATPTSLLISWRHPHFPTRYYRITYGETGGNSPVQEFTVPLQPPTATISGLKPGVDYTITVYAVTFAQNDHQLFTPISINYRT | 22% | –
3′H3 PR4 (designed binder) EVVAATPTSLLISWRHPHFPTRYYRITYGETGGNSPVQEFTVPLQPPTATISGLKPGVDYTITVYAVTLGLNDRELMTPISINYRT | 36% | –
3′H8 PR4 (designed binder) EVVAATPTSLLISWRHPHFPTRYYRITYGETGGNSPVQEFTVPLQPPTATISGLKPGVDYTITVYAVTVGHNDRELITPISINYRT | 20% | –
3′H9 PR4 (designed binder) EVVAATPTSLLISWRHPHFPTRYYRITYGETGGNSPVQEFTVPLQPPTATISGLKPGVDYTITVYAVTHGPYDQVLLTPISINYRT | 24% | –
3′H10 PR4 (designed binder) EVVAATPTSLLISWRHPHFPTRYYRITYGETGGNSPVQEFTVPLQPPTATISGLKPGVDYTITVYAVTWAWNDHELMTPISINYRT | 14% | –
3′H11 PR4 (designed binder) EVVAATPTSLLISWRHPHFPTRYYRITYGETGGNSPVQEFTVPLQPPTATISGLKPGVDYTITVYAVTLAHNGNELLTPISINYRT | 39% | –
4B11 PR3 (designed binder) EVVAATPTSLLISWRHPHFPTRYYRITYGETGGNSPVQEFTVPLQPPTATISGLKPGVDYTITVYAVTVGQNNHELITPISINYRT | 15% | –
4C9 PR3 (designed binder) EVVAATPTSLLISWRHPHFPTRYYRITYGETGGNSPVQEFTVPLQPPTATISGLKPGVDYTITVYAVTLAQNDHELLTPISINYRT | 16% | –
4F4 PR3 (designed binder) EVVAATPTSLLISWRHPHFPTRYYRITYGETGGNSPVQEFTVPLQPPTATISGLKPGVDYTITVYAVTLAQNDRELITPISINYRT | 15% | –
4H5 PR3 (designed binder) EVVAATPTSLLISWRHPHFPTRYYRITYGETGGNSPVQEFTVPLQPPTATISGLKPGVDYTITVYAVTVAQNGHELITPISINYRT | 14% | –
4′A5 PR4 (designed binder) EVVAATPTSLLISWRHPHFPTRYYRITYGETGGNSPVQEFTVPLQPPTATISGLKPGVDYTITVYAVTLAQNDHELLTPISINYRT | 16% | –
4′B3 PR4 (designed binder) EVVAATPTSLLISWRHPHFPTRYYRITYGETGGNSPVQEFTVPLQPPTATISGLKPGVDYTITVYAVTMAQNNRELLTPISINYRT | 42% | –
4′B7 PR4 (designed binder) EVVAATPTSLLISWRHPHFPTRYYRITYGETGGNSPVQEFTVPLQPPTATISGLKPGVDYTITVYAVTVAQNNHELLTPISINYRT | 16% | –
4′B8 PR4 (designed binder) EVVAATPTSLLISWRHPHFPTRYYRITYGETGGNSPVQEFTVPLQPPTATISGLKPGVDYTITVYAVTVAQNDHKLFIPISINYRT | 20% | –

Binder | Binding to 1 nM KDR, % [1] | Binding to 1 nM KDR, % [2]
4′B11 PR4 (designed binder) EVVAATPTSLLISWRHPHFPTRYYRITYGETGGNSPVQEFTVPLQPPTATISGLKPGVDYTITVYAVTMAHNDHELLTPISINYRT | 25% | –
4′C5 PR4 (designed binder) EVVAATPTSLLISWRHPHFPTRYYRITYGETGGNSPVQEFTVPLQPPTATISGLKPGVDYTITVYAVTLGLNDHELITPISINYRT | 27% | –
4′C9 PR4 (designed binder) EVVAATPTSLLISWRHPHFPTRYYRITYGETGGNSPVQEFTVPLQPPTATISGLKPGVDYTITVYAVTLGPNDHELMTPISINYRT | 29% | –
4′D6 PR4 (designed binder) EVVAATPTSLLISWRHPHFPTRYYRITYGETGGNSPVQEFTVPLQPPTATISGLKPGVDYTITVYAVTMAQNDHELMTPISINYRT | 14% | –
4′D8 PR4 (designed binder) EVVAATPTSLLISWRHPHFPTRYYRITYGETGGNSPVQEFTVPLQPPTATISGLKPGVDYTITVYAVTLAQNGHELYTPISINYRT | 26% | –
4′E7 PR4 (designed binder) EVVAATPTSLLISWRHPHFPTRYYRITYGETGGNSPVQEFTVPLQPPTATISGLKPGVDYTITVYAVTWAQNDHELLTPISINYRT | 17% | –
4′G4 PR4 (designed binder) EVVAATPTSLLISWRHPHFPTRYYRITYGETGGNSPVQEFTVPLQPPTATISGLKPGVDYTITVYAVTVAQNDRELLTPISINYRT | 19% | –
4′G12 PR4 (designed binder) EVVAATPTSLLISWRHPHFPTRYYRITYGETGGNSPVQEFTVPLQPPTATISGLKPGVDYTITVYAVTVAWNDHEIYTPISINYRT | 21% | –
4′H5 PR4 (designed binder) EVVAATPTSLLISWRHPHFPTRYYRITYGETGGNSPVQEFTVPLQPPTATISGLKPGVDYTITVYAVTLAQNGHELFTPISINYRT | 18% | –
4′H7 PR4 (designed binder) EVVAATPTSLLISWRHPHFPTRYYRITYGETGGNSPVQEFTVPLQPPTATISGLKPGVDYTITVYAVTLAHNDHELLTPISINYRT | 29% | –
4′H12 PR4 (designed binder) EVVAATPTSLLISWRHPHFPTRYYRITYGETGGNSPVQEFTVPLQPPTATISGLKPGVDYTITVYAVTVAHNDHELLTPISINYRT | 17% | –
2′E4-PR4 (designed binder) VSDVPRDLEVVAATPTSLLISWRHPHFPTRYYRITYGETGGNSPVQEFTVPLQPPTATISGLKPGVDYTITVYAVTVHWNGHELMTPISINYRT | 22% | –
2′C6-PR4 (designed binder) VSDVPRDLEVVAATPTSLLISWRHPHFPTRYYRITYGETGGNSPVQEFTVPLQPPTATISGLKPGVDYTITVYAVTMGFMAHELMVPISINYRT | 16% | –
2′D6-PR4 (designed binder) VSDVPRDLEVVAATPTSLLISWRHPHFPTRYYRITYGETGGNSPVQEFTVPLQPPTATISGLKPGVDYTITVYAVTVTHNGHPLMTPISINYRT | 22% | –
2′H4-PR4 (designed binder) VSDVPRDLEVVAATPTSLLISWRHPHFPTRYYRITYGETGGNSPVQEFTVPLQPPTATISGLKPGVDYTITVYAVTVGPNERMLMTPISINYRT | 17% | –
1′DelA4 PR4 (designed binder, in vitro translated) EVVAATPTSLLISWRHPHFPTRYYRITYGETGGNSPVQEFTVPLQPPTATISGLKPGVDYTITGYAVTVAQNDHELFTPISINYRT | – | 13%
1′DelB10 PR4 (designed binder, in vitro translated) EVVAATPTSLLISWRHPHFPTRYYRITYGETGGNSPVQEFTVPLQPPTATISGLKPGVDYTITVYAVTVARNDHELMTPISINYRT | – | 11%
